# B1: KAT8 regulatory NSL complex subunit 1 (Homo sapiens), Q7Z3B3 (parent)
# chain: MAAMAPALTDAAAEAHHIRFKLAPPSSTLSPGSAENNGNANILIAANGTKRKAIAAEDPSLDFRNNPTKEDLGKLQPLVASYLCSDVTSVPSKESLKLQGVFSKQTVLKSHPLLSQSYELRAELLGRQPVLEFSLENLRTMNTSGQTALPQAPVNGLAKKLTKSSTHSDHDNSTSLNGGKRALTSSALHGGEMGGSESGDLKGGMTNCTLPHRSLDVEHTTLYSNNSTANKSSVNSMEQPALQGSSRLSPGTDSSSNLGGVKLEGKKSPLSSILFSALDSDTRITALLRRQADIESRARRLQKRLQVVQAKQVERHIQHQLGGFLEKTLSKLPNLESLRPRSQLMLTRKAEAALRKAASETTTSEGLSNFLKSNSISEELERFTASGIANLRCSEQAFDSDVTDSSSGGESDIEEEELTRADPEQRHVPLRRRSEWKWAADRAAIVSRWNWLQAHVSDLEYRIRQQTDIYKQIRANKGLIVLGEVPPPEHTTDLFLPLSSEVKTDHGTDKLIESVSQPLENHGAPIIGHISESLSTKSCGALRPVNGVINTLQPVLADHIPGDSSDAEEQLHKKQRLNLVSSSSDGTCVAARTRPVLSCKKRRLVRPNSIVPLSKKVHRNSTIRPGCDVNPSCALCGSGSINTMPPEIHYEAPLLERLSQLDSCVHPVLAFPDDVPTSLHFQSMLKSQWQNKPFDKIKPPKKLSLKHRAPMPGSLPDSARKDRHKLVSSFLTTAKLSHHQTRPDRTHRQHLDDVGAVPMVERVTAPKAERLLNPPPPVHDPNHSKMRLRDHSSERSEVLKHHTDMSSSSYLAATHHPPHSPLVRQLSTSSDSPAPASSSSQVTASTSQQPVRRRRGESSFDINNIVIPMSVAATTRVEKLQYKEILTPSWREVDLQSLKGSPDEENEEIEDLSDAAFAALHAKCEEMERARWLWTTSVPPQRRGSRSYRSSDGRTTPQLGSANPSTPQPASPDVSSSHSLSEYSHGQSPRSPISPELHSAPLTPVARDTPRHLASEDTRCSTPELGLDEQSVQPWERRTFPLAHSPQAECEDQLDAQERAARCTRRTSGSKTGRETEAAPTSPPIVPLKSRHLVAAATAQRPTHR
# B2: KAT8 regulatory NSL complex subunit 2 (Homo sapiens), Q9H9L4 (parent)
# chain: MNRIRIHVLPTNRGRITPVPRSQEPLSCAFTHRPCSHPRLEGQEFCIKHILEDKNAPFKQCSYISTKNGKRCPNAAPKPEKKDGVSFCAEHVRRNALALHAQMKKTNPGPVGETLLCQLSSYAKTELGSQTPESSRSEASRILDEDSWSDGEQEPITVDQTWRGDPDSEADSIDSDQEDPLKHAGVYTAEEVALIMREKLIRLQSLYIDQFKRLQHLLKEKKRRYLHNRKVEHEALGSSLLTGPEGLLAKERENLKRLKCLRRYRQRYGVEALLHRQLKERRMLATDGAAQQAHTTRSSQRCLAFVDDVRCSNQSLPMTRHCLTHICQDTNQVLFKCCQGSEEVPCNKPVPVSLSEDPCCPLHFQLPPQMYKPEQVLSVPDDLEAGPMDLYLSAAELQPTESLPLEFSDDLDVVGDGMQCPPSPLLFDPSLTLEDHLVKEIAEDPVDILGQMQMAGDGCRSQGSRNSEKASAPLSQSGLATANGKPEPTSIS
# Variants of: B1
# Conditions: with wdr5_human WDR5, P61964
row,effect of a mutation on the interaction,Variant
1,disrupting interaction,R592A

# Variants of: B2
# Conditions: with wdr5_human WDR5, P61964
row,effect of a mutation on the interaction,Variant
1,disrupting interaction,MNRIRIHVLPTNRGRITPVPRSQEPLSCAFTHRPCSHPRLEGQEFCIKHILEDKNAPFKQCSYISTKNGKRCPNAAPKPEKKDGVSFCAEHVRRNALALHAQMKKTNPGPVGETLLCQLSSYAKTELGSQTPESSRSEASRILDEDSWSDGEQEPITVDQTWRGDPDSEADSIDSDQEDPLKHAGVYTAEEVALIMREKLIRLQSLYIDQFKRLQHLLKEKKRRYLHNRKVEHEALGSSLLTGPEGLLAKERENLKRLKCLRRYRQRYGVEALLHRQLKERRMLATDGAAQQAHTTRSSQRCLAFVDDVRCSNQSLPMTRHCLTHICQDTNQVLFKCCQGSEEVPCNKPVPVSLSEDPCCPLHFQLPPQMYKPEQVLSVPDDLEAGPMDLYLSAAELQPTESLPLEFSDDLDDVGDGMQCPPSPLLFDPSLTLEDHLVKEIAEDPVDILGQMQMAGDGCRSQGSRNSEKASAPLSQSGLATANGKPEPTSIS [V413D]

# Variants of: B2
# Conditions: with wdr5_human WDR5, P61964
# Remark: another data set of the same source
row,effect of a mutation on the interaction,Variant
1,disrupting interaction,MNRIRIHVLPTNRGRITPVPRSQEPLSCAFTHRPCSHPRLEGQEFCIKHILEDKNAPFKQCSYISTKNGKRCPNAAPKPEKKDGVSFCAEHVRRNALALHAQMKKTNPGPVGETLLCQLSSYAKTELGSQTPESSRSEASRILDEDSWSDGEQEPITVDQTWRGDPDSEADSIDSDQEDPLKHAGVYTAEEVALIMREKLIRLQSLYIDQFKRLQHLLKEKKRRYLHNRKVEHEALGSSLLTGPEGLLAKERENLKRLKCLRRYRQRYGVEALLHRQLKERRMLATDGAAQQAHTTRSSQRCLAFVDDVRCSNQSLPMTRHCLTHICQDTNQVLFKCCQGSEEVPCNKPVPVSLSEDPCCPLHFQLPPQMYKPEQVLSVPDDLEAGPMDLYLSAAELQPTESLPLEFSDDEDDVGDGMQCPPSPLLFDPSLTLEDHLVKEIAEDPVDILGQMQMAGDGCRSQGSRNSEKASAPLSQSGLATANGKPEPTSIS [L411E;V413D]

# From IntAct's records for PubMed 24788516
